The values that follow come from patent EP0980526B1 (IMPERIAL CANCER RESEARCH TECHNOLOGY LIMITED, dated 1998).

The assay has as its target T1, SRC1a-M1234 (human, UniProt Q15788 1-1441, [35S]-labelled).
T1 construct: range 1-1441; also called mutant SRC1
The experiment in a line: GST pulldown, +/- 10^-6 M E2.

T1 sequence (Q15788 other isoform, or with tags, fused parts or gaps limits assumed): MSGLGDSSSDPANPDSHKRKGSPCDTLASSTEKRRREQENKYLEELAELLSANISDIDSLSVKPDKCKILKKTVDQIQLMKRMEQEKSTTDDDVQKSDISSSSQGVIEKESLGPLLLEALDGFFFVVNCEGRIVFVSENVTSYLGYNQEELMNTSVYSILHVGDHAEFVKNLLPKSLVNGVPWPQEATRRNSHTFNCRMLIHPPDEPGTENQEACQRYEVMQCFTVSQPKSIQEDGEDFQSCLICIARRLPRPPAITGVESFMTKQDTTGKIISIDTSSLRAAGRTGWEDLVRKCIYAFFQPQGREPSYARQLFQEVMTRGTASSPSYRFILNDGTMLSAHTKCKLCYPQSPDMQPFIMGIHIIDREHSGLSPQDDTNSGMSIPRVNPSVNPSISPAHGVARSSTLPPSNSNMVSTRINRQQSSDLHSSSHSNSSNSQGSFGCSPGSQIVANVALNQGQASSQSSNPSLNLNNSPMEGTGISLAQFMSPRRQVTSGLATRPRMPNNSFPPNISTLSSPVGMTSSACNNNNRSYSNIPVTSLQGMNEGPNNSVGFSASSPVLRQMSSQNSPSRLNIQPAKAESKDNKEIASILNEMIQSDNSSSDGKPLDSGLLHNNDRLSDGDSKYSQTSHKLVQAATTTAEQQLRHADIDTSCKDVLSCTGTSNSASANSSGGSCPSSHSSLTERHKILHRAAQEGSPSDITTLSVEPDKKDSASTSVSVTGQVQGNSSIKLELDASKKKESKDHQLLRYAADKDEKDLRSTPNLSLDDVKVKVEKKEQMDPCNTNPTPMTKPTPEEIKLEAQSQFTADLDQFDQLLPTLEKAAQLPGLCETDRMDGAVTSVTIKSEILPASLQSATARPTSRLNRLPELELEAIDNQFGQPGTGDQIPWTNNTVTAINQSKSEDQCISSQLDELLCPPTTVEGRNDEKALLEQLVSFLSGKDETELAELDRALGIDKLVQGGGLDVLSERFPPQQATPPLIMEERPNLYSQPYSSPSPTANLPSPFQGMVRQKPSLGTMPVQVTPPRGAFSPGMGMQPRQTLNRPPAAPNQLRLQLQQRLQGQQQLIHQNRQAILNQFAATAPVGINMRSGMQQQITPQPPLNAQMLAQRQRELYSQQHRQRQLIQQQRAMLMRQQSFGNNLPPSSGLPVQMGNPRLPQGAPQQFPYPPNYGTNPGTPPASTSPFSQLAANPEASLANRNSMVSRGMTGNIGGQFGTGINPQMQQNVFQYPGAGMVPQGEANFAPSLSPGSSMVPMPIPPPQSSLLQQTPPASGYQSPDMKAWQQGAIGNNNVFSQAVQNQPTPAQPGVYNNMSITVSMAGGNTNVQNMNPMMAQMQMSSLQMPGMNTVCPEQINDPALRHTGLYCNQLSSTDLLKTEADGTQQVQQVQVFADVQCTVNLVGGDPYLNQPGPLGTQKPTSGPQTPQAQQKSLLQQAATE

B1: GST-AF2 (ligand binding domain of the mouse estrogen receptor fused to glutathione-S-transferase) (receptor, UniProt P19785 313-599, looked up)
chain: SLTADQMVSALLDAEPPMIYSEYDPSRPFSEASMMGLLTNLADRELVHMINWAKRVPGFGDLNLHDQVHLLECAWLEILMIGLVWRSMEHPGKLLFAPNLLLDRNQGKCVEGMVEIFDMLLATSSRFRMMNLQGEEFVCLKSIILLNSGVYTFLSSTLKSLEEKDHIHRVLDKITDTLIHLMAKAGLTLQQQHRRLAQLLLILSHIRHMSNKGMEHLYNMKCKNVVPLYDLLLEMLDAHRLHAPASRMGVPPEEPSQTQLATTSSTSAHSLQTYYIPPEAEGFPNTI
notes: range 313-599; Loaded on glutathione beads; tested with or without 10^-6 M E2; also called ER LBD; not shown: glutathione-S-transferase (GST)
For B1, the binding result was “no binding”.
